In patent publication US20230167174A1 (Novartis, published 2023):

Experiments:
[1] = target: T1, cyTREM2 ECD (19-174)-APP-Avi (cynomolgus); assay: SET
T1 construct: range 19-174

[2] = target: T2, human TREM2 on CHO-hDAP12-hTREM2 cells (human, UniProt Q9NZC2 19-230); assay: cell-based or functional assay
T2 sequence: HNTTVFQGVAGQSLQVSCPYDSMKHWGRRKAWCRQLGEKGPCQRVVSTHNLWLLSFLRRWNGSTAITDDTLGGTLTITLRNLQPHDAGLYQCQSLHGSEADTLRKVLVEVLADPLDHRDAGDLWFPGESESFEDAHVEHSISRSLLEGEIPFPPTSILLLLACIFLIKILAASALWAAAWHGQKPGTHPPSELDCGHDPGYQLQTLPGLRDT

[3] = target: T1, cyTREM2 ECD (19-174)-APP-Avi; assay: SPR, label free kinetics
[4] = target: T3, hTREM2 IgSF-hTREM1 stalk-hFc (human, UniProt Q9NZC2 19-132; Q9NP99 135-205, limits assumed); assay: recombinant protein binding
T3 construct: domain: IgSF;domain: stalk region; also called hTREM2 IgSF-T1 stalk-hFc-bio; hTREM2 IgSF-hTREM1 stalk-hFc-bio
T3 sequence (looked up): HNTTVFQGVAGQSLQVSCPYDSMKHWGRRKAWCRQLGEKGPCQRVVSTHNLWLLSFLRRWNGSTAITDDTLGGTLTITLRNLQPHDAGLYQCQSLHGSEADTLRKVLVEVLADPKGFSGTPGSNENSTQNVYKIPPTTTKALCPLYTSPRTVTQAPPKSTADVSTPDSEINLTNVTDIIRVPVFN

[5] = target: T4, TREM2 (isoform 3) on transfected HEK293 cells (human); assay: plasma membrane protein cell array, HEK293
T4 construct: also called BC032362
T4 chain: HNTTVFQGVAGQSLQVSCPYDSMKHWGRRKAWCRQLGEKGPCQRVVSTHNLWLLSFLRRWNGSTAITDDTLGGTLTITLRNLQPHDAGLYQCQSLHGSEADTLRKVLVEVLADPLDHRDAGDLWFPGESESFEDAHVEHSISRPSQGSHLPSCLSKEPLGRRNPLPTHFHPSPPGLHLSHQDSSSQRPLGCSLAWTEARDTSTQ
Procedure: Human HEK293 cells were grown on glass slides and fixed. Test antibodies were added at 2 µg/ml. Slides were subsequently incubated with an AlexaFluor647 labelled anti-human IgG Fc detection antibody, followed by fluorescence imaging.

[6] = target: T1, cyTREM2 ECD (19-174)-APP-Avi; assay: SPR (Biacore)

B1: MOR044698 (antibody, V domains shown)
VH: QVQLVQSGAEVKKPGASVKVSCKASGYTFTGYHMSWVRQAPGQGLEWMGVINPVSGNTVYAQKFQGRVTMTRDTSISTAYMELSRLRSEDTAVYYCARIPSYTYAFDYWGQGTLVTVSS
VL: DIQMTQSPSSLSASVGDRVTITCRASQDISNYLAWYQQKPGKAPKLLIYRASSLQSGVPSRFSGSGSGTDFTLTISSLQPEDFATYYCFQYRHMPSQTFGQGTKVEIKR
notes: also called MOR44698; MOR44698A
Kd [1]: 39 pM | Internalization compared to parental after 6 h [2]: 1.5 fold | Kd [3]: 39 pM | S/BG [4]: > 20 | binding result [5]: binds

B2: MOR042596 (antibody, human IgG1, kappa, L234A L235A, V domains shown)
VH: QVQLVQSGAEVKKPGASVKVSCKASGYTFTGYHMSWVRQAPGQGLEWMGVINPVSGNTVYAQKFQGRVTMTRDTSISTAYMELSRLRSEDTAVYYCARIPSYTYAFDYWGQGTLVTVSS
VL: DIQMTQSPSSLSASVGDRVTITCRASQDISNYLAWYQQKPGKAPKLLIYRASSLQSGVPSRFSGSGSGTDFTLTISSLQPEDFATYYCQQHGHSPTTFGQGTKVEIKR
notes: full IgG; also called MOR42596
Kd [6]: 6600 pM
